Assay results as given in the supplement of paper PMC9112550, “Optimization of the antimicrobial peptide Bac7 by deep mutational scanning” (BMC Biology, 2022).

test system: Escherichia coli TOP10; experiment: shrunken log2 fold change of peptide-encoding DNA abundance (4.5 h post-induction vs induction); higher = less antimicrobial activity (less host growth inhibition); conditions: time post-induction: 4.5 h; library: site-saturation at positions 5, 18, 19, 20
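Note: peptides expressed intracellularly from a pBAD plasmid library in pooled LB shake-flask culture, induced with 0.3% L-arabinose, DNA abundance read by NGS, three biological replicates, DESeq2 with apeglm shrinkage.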

Compared with RRIRTRPPRLPRPRPRPFFDPRP, RRIRNRPPRLPRPRPRPDNKPRP is lower in “shrunken log2 fold change” value: -0.429 for the first, -1.35 for the second.

RRIRARPPRLPRPRPRPCGMPRP and RRIRIRPPRLPRPRPRPDCPPRP are within 0.2 log units of each other in “shrunken log2 fold change” value: 0.0551 for the first, 0.132 for the second.

First: RRIRRRPPRLPRPRPRPKNNPRP
Second: RRIRTRPPRLPRPRPRPERWPRP
The “shrunken log2 fold change” value of the first is lower: -0.0641 for the first, 0.354 for the second.

Compared with RRIRSRPPRLPRPRPRPKQRPRP, RRIRRRPPRLPRPRPRPCQYPRP is lower in “shrunken log2 fold change” value: 0.161 for the first, -0.137 for the second.

First: RRIRGRPPRLPRPRPRPADWPRP
Second: RRIRNRPPRLPRPRPRPKSMPRP
The “shrunken log2 fold change” value of the first is higher: 1.03 for the first, 0.0478 for the second.

RRIRQRPPRLPRPRPRPLDFPRP and RRIRIRPPRLPRPRPRPECQPRP are within 0.2 log units of each other in “shrunken log2 fold change” value: -0.0491 for the first, -0.00158 for the second.

Compared with RRIRVRPPRLPRPRPRPRRMPRP, RRIRYRPPRLPRPRPRPRHGPRP is lower in “shrunken log2 fold change” value: 0.422 for the first, -0.0607 for the second.

RRIRDRPPRLPRPRPRPCLQPRP and RRIRARPPRLPRPRPRPIAGPRP are within 0.2 log units of each other in “shrunken log2 fold change” value: -0.0105 for the first, 0.163 for the second.

Going from RRIRPRPPRLPRPRPRPPYFPRP to RRIRCRPPRLPRPRPRPYGKPRP, the “shrunken log2 fold change” value falls from 0.0747 to -0.307.

First: RRIRSRPPRLPRPRPRPKDTPRP
Second: RRIRARPPRLPRPRPRPYNAPRP
The “shrunken log2 fold change” value of the first is higher: -0.145 for the first, -1.2 for the second.

Compared with RRIRVRPPRLPRPRPRPVLEPRP, RRIRWRPPRLPRPRPRPWSAPRP is higher in “shrunken log2 fold change” value: -0.0482 for the first, 0.228 for the second.

RRIRIRPPRLPRPRPRPNRMPRP and RRIRFRPPRLPRPRPRPHENPRP are within 0.2 log units of each other in “shrunken log2 fold change” value: -0.0394 for the first, 0.0161 for the second.

First: RRIRMRPPRLPRPRPRPAMDPRP
Second: RRIRDRPPRLPRPRPRPLNYPRP
The “shrunken log2 fold change” value of the first is higher: 1.27 for the first, -0.372 for the second.

RRIRMRPPRLPRPRPRPQIWPRP and RRIRARPPRLPRPRPRPSICPRP are within 0.2 log units of each other in “shrunken log2 fold change” value: 0.144 for the first, 0.154 for the second.

Compared with RRIRRRPPRLPRPRPRPQFNPRP, RRIRHRPPRLPRPRPRPAEVPRP is higher in “shrunken log2 fold change” value: -0.323 for the first, -0.0107 for the second.

Going from RRIRMRPPRLPRPRPRPDWNPRP to RRIRMRPPRLPRPRPRPTHNPRP, the “shrunken log2 fold change” value rises from -0.0431 to 0.275.

Compared with RRIRQRPPRLPRPRPRPSCVPRP, RRIRERPPRLPRPRPRPQHQPRP is higher in “shrunken log2 fold change” value: -0.478 for the first, -0.15 for the second.

RRIRTRPPRLPRPRPRPHMVPRP and RRIRLRPPRLPRPRPRPFAGPRP are within 0.2 log units of each other in “shrunken log2 fold change” value: 0.00159 for the first, 0.024 for the second.

First: RRIRFRPPRLPRPRPRPQPLPRP
Second: RRIRNRPPRLPRPRPRPQIHPRP
The “shrunken log2 fold change” value of the first is higher: -0.0304 for the first, -0.364 for the second.

Compared with RRIRARPPRLPRPRPRPKNSPRP, RRIRRRPPRLPRPRPRPIWPPRP is higher in “shrunken log2 fold change” value: -0.0129 for the first, 0.664 for the second.

Compared with RRIRIRPPRLPRPRPRPSLLPRP, RRIRLRPPRLPRPRPRPKSWPRP is higher in “shrunken log2 fold change” value: -0.374 for the first, 0.176 for the second.

RRIRQRPPRLPRPRPRPKGTPRP and RRIRARPPRLPRPRPRPCLYPRP are within 0.2 log units of each other in “shrunken log2 fold change” value: 0.109 for the first, 0.137 for the second.

Compared with RRIRYRPPRLPRPRPRPVGGPRP, RRIRCRPPRLPRPRPRPYQHPRP is lower in “shrunken log2 fold change” value: -0.179 for the first, -0.381 for the second.

Compared with RRIRKRPPRLPRPRPRPCSQPRP, RRIRPRPPRLPRPRPRPTLMPRP is higher in “shrunken log2 fold change” value: 0.0126 for the first, 0.227 for the second.

First: RRIRQRPPRLPRPRPRPQELPRP
Second: RRIRARPPRLPRPRPRPWTIPRP
The “shrunken log2 fold change” value of the first is higher: 0.157 for the first, -0.0653 for the second.

First: RRIRYRPPRLPRPRPRPARRPRP
Second: RRIRRRPPRLPRPRPRPHFQPRP
The “shrunken log2 fold change” value of the first is higher: 0.234 for the first, -0.0173 for the second.

First: RRIRERPPRLPRPRPRPGCTPRP
Second: RRIRDRPPRLPRPRPRPGGAPRP
The “shrunken log2 fold change” value of the first is lower: -0.169 for the first, 0.806 for the second.

RRIRQRPPRLPRPRPRPKWTPRP and RRIRKRPPRLPRPRPRPIPGPRP are within 0.2 log units of each other in “shrunken log2 fold change” value: -0.164 for the first, -0.0379 for the second.

First: RRIRERPPRLPRPRPRPVAPPRP
Second: RRIRKRPPRLPRPRPRPEKGPRP
The “shrunken log2 fold change” value of the first is higher: 0.246 for the first, -0.00382 for the second.

First: RRIRFRPPRLPRPRPRPSTVPRP
Second: RRIRVRPPRLPRPRPRPQYNPRP
The “shrunken log2 fold change” value of the first is higher: -0.325 for the first, -0.851 for the second.

RRIRNRPPRLPRPRPRPTPCPRP and RRIRFRPPRLPRPRPRPGGTPRP are within 0.2 log units of each other in “shrunken log2 fold change” value: 0.043 for the first, -0.0188 for the second.

Compared with RRIRMRPPRLPRPRPRPYGCPRP, RRIRGRPPRLPRPRPRPDPFPRP is higher in “shrunken log2 fold change” value: -0.341 for the first, 0.302 for the second.

Going from RRIRRRPPRLPRPRPRPHHLPRP to RRIRFRPPRLPRPRPRPYDKPRP, the “shrunken log2 fold change” value falls from -0.0855 to -0.374.

RRIRMRPPRLPRPRPRPQMGPRP and RRIRARPPRLPRPRPRPVCKPRP are within 0.2 log units of each other in “shrunken log2 fold change” value: 0.0997 for the first, 0.195 for the second.

RRIRSRPPRLPRPRPRPCANPRP and RRIRDRPPRLPRPRPRPHGTPRP are within 0.2 log units of each other in “shrunken log2 fold change” value: -0.113 for the first, 0.0175 for the second.

First: RRIRTRPPRLPRPRPRPECMPRP
Second: RRIRTRPPRLPRPRPRPCRAPRP
The “shrunken log2 fold change” value of the first is higher: 0.378 for the first, -0.0539 for the second.

RRIRARPPRLPRPRPRPLCYPRP and RRIRQRPPRLPRPRPRPNQHPRP are within 0.2 log units of each other in “shrunken log2 fold change” value: -0.0201 for the first, 0.0696 for the second.

With RRIRCRPPRLPRPRPRPDDYPRP the “shrunken log2 fold change” value was 0.0185.
